Measurements as given in article PMC5493754, “Myosin 7 and its adaptors link cadherins to actin” (Nature Communications, 2017).

T1: SANS_(CEN-PBM) with YFP-FL-harmonin-ΔCter ( | human, UniProt Q495M9 300-461; Q9Y6N9-1 1-542)
T1 construct: SANS (USH1G), residues 300-461 of UniProt Q495M9; as m41; Harmonin-a1 (USH1C), human, residues 1-542 of UniProt Q9Y6N9-1; as m28; also called SANS_(CEN-PBM)+^YFPFL ΔCter; source: purified E. coli proteins mixed
T1 sequence (looked up) 1: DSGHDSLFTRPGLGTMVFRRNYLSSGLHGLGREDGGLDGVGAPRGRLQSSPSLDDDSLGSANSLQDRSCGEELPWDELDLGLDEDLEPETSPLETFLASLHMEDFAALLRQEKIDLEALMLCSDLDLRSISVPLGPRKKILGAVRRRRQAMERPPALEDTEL
T1 sequence (looked up) 2: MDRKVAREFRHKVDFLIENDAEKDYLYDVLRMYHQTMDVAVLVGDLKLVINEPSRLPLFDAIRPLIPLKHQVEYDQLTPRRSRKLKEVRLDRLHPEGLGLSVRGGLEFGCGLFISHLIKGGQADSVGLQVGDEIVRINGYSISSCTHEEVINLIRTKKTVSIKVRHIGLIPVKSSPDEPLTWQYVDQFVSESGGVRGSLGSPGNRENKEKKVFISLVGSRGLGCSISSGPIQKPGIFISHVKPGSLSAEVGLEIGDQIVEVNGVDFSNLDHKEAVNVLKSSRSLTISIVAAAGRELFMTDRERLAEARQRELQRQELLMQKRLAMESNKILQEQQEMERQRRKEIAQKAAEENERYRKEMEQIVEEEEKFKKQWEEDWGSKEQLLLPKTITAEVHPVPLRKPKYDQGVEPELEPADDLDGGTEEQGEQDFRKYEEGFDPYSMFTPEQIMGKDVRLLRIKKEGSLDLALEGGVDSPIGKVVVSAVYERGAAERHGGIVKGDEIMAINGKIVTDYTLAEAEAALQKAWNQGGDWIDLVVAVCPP

T2: SANS_(CEN-PBM) with YFP-harmonin NPDZ1.PDZ2 ( | human, UniProt Q495M9 300-461; Q9Y6N9-1 1-301)
T2 construct: SANS (USH1G), residues 300-461 of UniProt Q495M9; as m41; Harmonin-a1 (USH1C), human, residues 1-301 of UniProt Q9Y6N9-1; as m31; also called SANS_(CEN-PBM)+^YFPNPDZ1.PDZ2; source: purified E. coli proteins mixed
T2 sequence (looked up) 1: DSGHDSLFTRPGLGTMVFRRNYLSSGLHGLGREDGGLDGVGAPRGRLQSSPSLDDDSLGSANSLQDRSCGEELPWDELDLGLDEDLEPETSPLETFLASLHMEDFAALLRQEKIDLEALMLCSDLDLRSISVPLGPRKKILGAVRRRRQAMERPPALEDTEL
T2 sequence (looked up) 2: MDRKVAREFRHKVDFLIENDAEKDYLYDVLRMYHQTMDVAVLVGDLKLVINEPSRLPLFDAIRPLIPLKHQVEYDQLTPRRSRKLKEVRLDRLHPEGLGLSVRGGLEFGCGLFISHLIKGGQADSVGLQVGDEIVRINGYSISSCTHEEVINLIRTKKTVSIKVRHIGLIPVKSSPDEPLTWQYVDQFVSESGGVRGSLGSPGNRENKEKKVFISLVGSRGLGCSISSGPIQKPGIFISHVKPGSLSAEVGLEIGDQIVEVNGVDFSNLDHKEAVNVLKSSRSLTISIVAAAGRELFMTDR

T3: ANKS4B_(CEN-PBM) with YFP-harmonin NPDZ1.PDZ2 (human, UniProt Q8N8V4 259-417; Q9Y6N9-1 1-301)
T3 construct: ANKS4B, human, residues 259-417 of UniProt Q8N8V4; as m43; Harmonin-a1 (USH1C), human, residues 1-301 of UniProt Q9Y6N9-1; as m31; also called ANKS4b+^YFPNPDZ1.PDZ2; ^YFPNPDZ1.PDZ2+ANKS4B_(CEN-PBM); source: purified E. coli proteins mixed
T3 sequence (looked up) 1: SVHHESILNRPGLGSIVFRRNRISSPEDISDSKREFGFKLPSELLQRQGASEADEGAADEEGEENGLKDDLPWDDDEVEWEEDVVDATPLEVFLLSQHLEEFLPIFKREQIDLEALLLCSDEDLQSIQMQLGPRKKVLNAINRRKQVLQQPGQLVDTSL
T3 sequence (looked up) 2: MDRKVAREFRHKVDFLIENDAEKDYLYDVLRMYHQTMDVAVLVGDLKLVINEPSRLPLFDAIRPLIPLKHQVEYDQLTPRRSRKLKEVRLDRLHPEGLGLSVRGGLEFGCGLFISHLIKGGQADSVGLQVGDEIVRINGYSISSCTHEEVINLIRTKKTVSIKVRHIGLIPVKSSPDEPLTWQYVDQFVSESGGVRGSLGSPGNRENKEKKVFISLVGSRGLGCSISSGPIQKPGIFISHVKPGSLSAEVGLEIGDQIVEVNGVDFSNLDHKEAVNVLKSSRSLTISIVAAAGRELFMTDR

T4: YFP-ANKS4B_(CEN-PBM) with harmonin NPDZ1.PDZ2 (human, UniProt Q8N8V4 259-417; Q9Y6N9-1 1-301)
T4 construct: ANKS4B, human, residues 259-417 of UniProt Q8N8V4; as m42; Harmonin-a1 (USH1C), human, residues 1-301 of UniProt Q9Y6N9-1; as m30; also called ^YFPANKS4b+NPDZ1.PDZ2; source: purified E. coli proteins mixed; not shown: YFP, N-terminal, kept
T4 sequence (looked up) 1: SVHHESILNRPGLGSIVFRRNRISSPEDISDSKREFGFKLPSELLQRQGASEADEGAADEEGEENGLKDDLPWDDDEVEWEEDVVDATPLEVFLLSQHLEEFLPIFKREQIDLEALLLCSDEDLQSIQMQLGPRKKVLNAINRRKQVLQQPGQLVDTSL
T4 sequence (looked up) 2: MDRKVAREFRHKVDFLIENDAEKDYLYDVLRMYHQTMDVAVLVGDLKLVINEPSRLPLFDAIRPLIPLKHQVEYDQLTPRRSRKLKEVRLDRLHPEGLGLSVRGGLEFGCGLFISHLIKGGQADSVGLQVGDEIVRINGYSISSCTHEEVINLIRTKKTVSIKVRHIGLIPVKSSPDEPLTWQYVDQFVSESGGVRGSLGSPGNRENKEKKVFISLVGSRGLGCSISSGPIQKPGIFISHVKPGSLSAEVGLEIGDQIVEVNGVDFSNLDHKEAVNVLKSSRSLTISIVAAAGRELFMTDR

T5: Myosin 7b MF2 (human, UniProt Q6PIF6 1605-2116)
T5 construct: also called M7b MF2; Myo7b MF2; source: E. coli (BL21-AI, BL21 (DE3) Rosetta or BL21-Gold (DE3)), purified (Histrap, CaptoQ, gel filtration)
T5 sequence (looked up): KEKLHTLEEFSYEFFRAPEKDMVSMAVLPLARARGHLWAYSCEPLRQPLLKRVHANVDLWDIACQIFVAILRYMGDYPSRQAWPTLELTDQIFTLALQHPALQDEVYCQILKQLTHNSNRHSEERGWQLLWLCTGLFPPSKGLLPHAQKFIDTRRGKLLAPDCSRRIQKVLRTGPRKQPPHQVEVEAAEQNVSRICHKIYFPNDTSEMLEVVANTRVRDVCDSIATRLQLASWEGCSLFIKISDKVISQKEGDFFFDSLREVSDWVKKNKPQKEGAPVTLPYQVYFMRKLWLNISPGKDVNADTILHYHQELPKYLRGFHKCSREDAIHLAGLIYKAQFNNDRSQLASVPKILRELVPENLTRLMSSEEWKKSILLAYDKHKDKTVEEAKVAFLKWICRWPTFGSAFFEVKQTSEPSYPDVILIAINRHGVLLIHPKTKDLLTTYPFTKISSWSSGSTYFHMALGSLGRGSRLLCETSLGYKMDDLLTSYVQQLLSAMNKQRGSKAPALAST


Tests used:
Details in all cases: both partners purified
[1] = biological target: T1, SANS_(CEN-PBM) with …; assay: MST; YFP-fused partner held together with a third protein (saturating concentrations; competition experiments), non-fluorescent protein titrated
[2] = biological target: T2, SANS_(CEN-PBM) with YFP-harmonin …; assay: as above
[3] = biological target: T3, ANKS4B_(CEN-PBM) with YFP-harmonin …; assay: as above
[4] = biological target: T4, YFP-ANKS4B_(CEN-PBM) with harmonin …; assay: as above
Myosin 7b MF2 = biological target: T5, Myosin 7b MF2; assay: MST; YFP-fused partner constant at 100 nM, non-fluorescent protein titrated (16 two-fold dilutions); 20 mM Hepes pH 7.0, 100 mM NaCl, 1 mM EGTA, 0.5 mM TCEP, 0.05% Tween 20; Monolith NT.115

| Kd [1] [µM] | Kd [2] [µM] | Kd [3] [µM] | Kd [4] [µM] | Kd (Myosin 7b MF2) [µM] | Binder |
| --- | --- | --- | --- | --- | --- |
| > 100 | > 100 | > 100 | > 100 |  | Harmonin-a PDZ3c (non-fluorescent, as used in MST) (domain or fragment, human, UniProt Q9Y6N9-1 428-552, looked up, Harmonin-a1 (USH1C), human, PDZ3 plus C-terminal peptide, residues 428-552 of UniProt Q9Y6N9-1; The methods say only that samples for ITC or crystallisation were digested with TEV protease; also called PDZ3c (isoA); source: E. coli BL21 (DE3) Rosetta, purified (Glutathione Sepharose 4B, size-exclusion chromatography)) QDFRKYEEGFDPYSMFTPEQIMGKDVRLLRIKKEGSLDLALEGGVDSPIGKVVVSAVYERGAAERHGGIVKGDEIMAINGKIVTDYTLAEAEAALQKAWNQGGDWIDLVVAVCPPKEYDDELTFF |
|  |  |  |  | 1.9 ± 0.6 | YFP-Harmonin-a PDZ3c (domain or fragment, human, UniProt Q9Y6N9-1 428-552, looked up, Harmonin-a1 (USH1C), human, residues 428-552 of UniProt Q9Y6N9-1; also called ^YFPPDZ3c (isoA); source: E. coli BL21 (DE3) Rosetta, purified (Glutathione Sepharose 4B, size-exclusion chromatography)) QDFRKYEEGFDPYSMFTPEQIMGKDVRLLRIKKEGSLDLALEGGVDSPIGKVVVSAVYERGAAERHGGIVKGDEIMAINGKIVTDYTLAEAEAALQKAWNQGGDWIDLVVAVCPPKEYDDELTFF |
